Reference: paper doi:10.1101/2021.06.02.446795

Molecular target: HMPV nucleoprotein N (strain CAN97-83), full-length, N-RNA rings (human metapneumovirus (strain CAN97-83))
Assay: SEC

## HMPV nucleoprotein N (strain CAN97-83), full-length, N-RNA rings (natural protein)
  stoichiometry N: 10
